Results on 11 molecules are retold here after patent US8785135B2, “Mutant G-protein coupled receptors and methods for selecting them” (Heptares Therapeutics Limited, priority 2007, dated 2014).

The data set is described as follows: Thermostability of A2aR and mutants (ligand binding after or during heating). Particulars: for thermostability measured with 3H-NECA (agonist) / thermostability assayed with 3H-ZM241385 (antagonist): Ligand(−) format, binding after the heating step. Format: physicochemical. The source says: FIG. 12 Flow chart showing the two different assay formats of ligand (+) and ligand (−) used to determine receptor thermostability.
• 1. 315 site-directed mutants made between residues 2-316 of A2aR. • 2. All of these mutants have been assayed for thermostability using an assay measuring agonist and antagonist binding after the heating step (Ligand(−) format as described in FIG. 12). • a. […] Mutations have been combined to generate mutants in a putative antagonist conformation. Wildtype A2aR has a Tm of 31° C. with ZM241385 bound. • a. Rant17 A54L+K122A+L235A Tm 48° C. (ZM241385 bound) • b. Rant19 A54L, T88A, V239A+A204L Tm 47° C. (ZM241385 bound) • c. Rant21 A54L, T88A, V239A+K122A Tm 49° C. (ZM241385 bound) • 4. Mutations from the agonist screen have been combined, but have led to only a very low level of improvement in Tm of +2° C.

B1: N284A: A2aR point mutant (protein, UniProt P29274 1-412, looked up, variant N284A)
Adenosine receptor A2a: MPIMGSSVYITVELAIAVLAILGNVLVCWAVWLNSNLQNVTNYFVVSLAAADIAVGVLAIPFAITISTGFCAACHGCLFIACFVLVLTQSSIFSLLAIAIDRYIAIRIPLRYNGLVTGTRAKGIIAICWVLSFAIGLTPMLGWNNCGQPKEGKNHSQGCGEGQVACLFEDVVPMNYMVYFNFFACVLVPLLLMLGVYLRIFLAARRQLKQMESQPLPGERARSTLQKEVHAAKSLAIIVGLFALCWLPLHIINCFTFFCPDCSHAPLWLMYLAIVLSHTNSVVAPFIYAYRIREFRQTFRKIIRSHVLRQQEPFKAAGTSARVLAAHGSDGEQVSLRLNGHPPGVWANGSAPHPERRPNGYALGLVSGGSAQESQGNTGLPDVELLSHELKGVCPEPPGLDDPLAQDGAGVS
Turning to B1, the “thermostability measured with 3H-NECA (agonist)” value (“thermostability measured” for short) is “improved thermostability”.

B2: Q311A: A2aR point mutant (protein, UniProt P29274 1-412, looked up, variant Q311A)
Adenosine receptor A2a: MPIMGSSVYITVELAIAVLAILGNVLVCWAVWLNSNLQNVTNYFVVSLAAADIAVGVLAIPFAITISTGFCAACHGCLFIACFVLVLTQSSIFSLLAIAIDRYIAIRIPLRYNGLVTGTRAKGIIAICWVLSFAIGLTPMLGWNNCGQPKEGKNHSQGCGEGQVACLFEDVVPMNYMVYFNFFACVLVPLLLMLGVYLRIFLAARRQLKQMESQPLPGERARSTLQKEVHAAKSLAIIVGLFALCWLPLHIINCFTFFCPDCSHAPLWLMYLAIVLSHTNSVVNPFIYAYRIREFRQTFRKIIRSHVLRQAEPFKAAGTSARVLAAHGSDGEQVSLRLNGHPPGVWANGSAPHPERRPNGYALGLVSGGSAQESQGNTGLPDVELLSHELKGVCPEPPGLDDPLAQDGAGVS
Take B2: the “thermostability measured” value was “improved thermostability”.

B3: G114 A: A2aR point mutant (protein, UniProt P29274 1-412, looked up, variant G114A)
Adenosine receptor A2a: MPIMGSSVYITVELAIAVLAILGNVLVCWAVWLNSNLQNVTNYFVVSLAAADIAVGVLAIPFAITISTGFCAACHGCLFIACFVLVLTQSSIFSLLAIAIDRYIAIRIPLRYNALVTGTRAKGIIAICWVLSFAIGLTPMLGWNNCGQPKEGKNHSQGCGEGQVACLFEDVVPMNYMVYFNFFACVLVPLLLMLGVYLRIFLAARRQLKQMESQPLPGERARSTLQKEVHAAKSLAIIVGLFALCWLPLHIINCFTFFCPDCSHAPLWLMYLAIVLSHTNSVVNPFIYAYRIREFRQTFRKIIRSHVLRQQEPFKAAGTSARVLAAHGSDGEQVSLRLNGHPPGVWANGSAPHPERRPNGYALGLVSGGSAQESQGNTGLPDVELLSHELKGVCPEPPGLDDPLAQDGAGVS
Regarding B3, the “thermostability assayed with 3H-ZM241385 (antagonist)” value (shortened to “thermostability assayed”) is reported as “improved thermostability” and the “thermostability measured” value is “improved thermostability”.

B4: T88A: A2aR point mutant (protein, UniProt P29274 1-412, looked up, variant T88A)
Adenosine receptor A2a: MPIMGSSVYITVELAIAVLAILGNVLVCWAVWLNSNLQNVTNYFVVSLAAADIAVGVLAIPFAITISTGFCAACHGCLFIACFVLVLAQSSIFSLLAIAIDRYIAIRIPLRYNGLVTGTRAKGIIAICWVLSFAIGLTPMLGWNNCGQPKEGKNHSQGCGEGQVACLFEDVVPMNYMVYFNFFACVLVPLLLMLGVYLRIFLAARRQLKQMESQPLPGERARSTLQKEVHAAKSLAIIVGLFALCWLPLHIINCFTFFCPDCSHAPLWLMYLAIVLSHTNSVVNPFIYAYRIREFRQTFRKIIRSHVLRQQEPFKAAGTSARVLAAHGSDGEQVSLRLNGHPPGVWANGSAPHPERRPNGYALGLVSGGSAQESQGNTGLPDVELLSHELKGVCPEPPGLDDPLAQDGAGVS
Take B4: the “thermostability assayed” value is reported as “improved thermostability”.

B5: A54L: A2aR point mutant (protein, UniProt P29274 1-412, looked up, variant A54L)
Adenosine receptor A2a: MPIMGSSVYITVELAIAVLAILGNVLVCWAVWLNSNLQNVTNYFVVSLAAADILVGVLAIPFAITISTGFCAACHGCLFIACFVLVLTQSSIFSLLAIAIDRYIAIRIPLRYNGLVTGTRAKGIIAICWVLSFAIGLTPMLGWNNCGQPKEGKNHSQGCGEGQVACLFEDVVPMNYMVYFNFFACVLVPLLLMLGVYLRIFLAARRQLKQMESQPLPGERARSTLQKEVHAAKSLAIIVGLFALCWLPLHIINCFTFFCPDCSHAPLWLMYLAIVLSHTNSVVNPFIYAYRIREFRQTFRKIIRSHVLRQQEPFKAAGTSARVLAAHGSDGEQVSLRLNGHPPGVWANGSAPHPERRPNGYALGLVSGGSAQESQGNTGLPDVELLSHELKGVCPEPPGLDDPLAQDGAGVS
As for B5, the “thermostability assayed” value is listed as “improved thermostability”.

B6: Rant17: A2aR mutant A54L+K122A+L235A (protein, UniProt P29274 1-412, looked up, variant A54L K122A L235A)
Adenosine receptor A2a: MPIMGSSVYITVELAIAVLAILGNVLVCWAVWLNSNLQNVTNYFVVSLAAADILVGVLAIPFAITISTGFCAACHGCLFIACFVLVLTQSSIFSLLAIAIDRYIAIRIPLRYNGLVTGTRAAGIIAICWVLSFAIGLTPMLGWNNCGQPKEGKNHSQGCGEGQVACLFEDVVPMNYMVYFNFFACVLVPLLLMLGVYLRIFLAARRQLKQMESQPLPGERARSTLQKEVHAAKSAAIIVGLFALCWLPLHIINCFTFFCPDCSHAPLWLMYLAIVLSHTNSVVNPFIYAYRIREFRQTFRKIIRSHVLRQQEPFKAAGTSARVLAAHGSDGEQVSLRLNGHPPGVWANGSAPHPERRPNGYALGLVSGGSAQESQGNTGLPDVELLSHELKGVCPEPPGLDDPLAQDGAGVS
B6: the Tm (ZM241385 bound) was 48 °C.

B7: K315A: A2aR point mutant (protein, UniProt P29274 1-412, looked up, variant K315A)
Adenosine receptor A2a: MPIMGSSVYITVELAIAVLAILGNVLVCWAVWLNSNLQNVTNYFVVSLAAADIAVGVLAIPFAITISTGFCAACHGCLFIACFVLVLTQSSIFSLLAIAIDRYIAIRIPLRYNGLVTGTRAKGIIAICWVLSFAIGLTPMLGWNNCGQPKEGKNHSQGCGEGQVACLFEDVVPMNYMVYFNFFACVLVPLLLMLGVYLRIFLAARRQLKQMESQPLPGERARSTLQKEVHAAKSLAIIVGLFALCWLPLHIINCFTFFCPDCSHAPLWLMYLAIVLSHTNSVVNPFIYAYRIREFRQTFRKIIRSHVLRQQEPFAAAGTSARVLAAHGSDGEQVSLRLNGHPPGVWANGSAPHPERRPNGYALGLVSGGSAQESQGNTGLPDVELLSHELKGVCPEPPGLDDPLAQDGAGVS
Take B7: the “thermostability measured” value was “improved thermostability”.

B8: T119A: A2aR point mutant (protein, UniProt P29274 1-412, looked up, variant T119A)
Adenosine receptor A2a: MPIMGSSVYITVELAIAVLAILGNVLVCWAVWLNSNLQNVTNYFVVSLAAADIAVGVLAIPFAITISTGFCAACHGCLFIACFVLVLTQSSIFSLLAIAIDRYIAIRIPLRYNGLVTGARAKGIIAICWVLSFAIGLTPMLGWNNCGQPKEGKNHSQGCGEGQVACLFEDVVPMNYMVYFNFFACVLVPLLLMLGVYLRIFLAARRQLKQMESQPLPGERARSTLQKEVHAAKSLAIIVGLFALCWLPLHIINCFTFFCPDCSHAPLWLMYLAIVLSHTNSVVNPFIYAYRIREFRQTFRKIIRSHVLRQQEPFKAAGTSARVLAAHGSDGEQVSLRLNGHPPGVWANGSAPHPERRPNGYALGLVSGGSAQESQGNTGLPDVELLSHELKGVCPEPPGLDDPLAQDGAGVS
B8: the “thermostability assayed” value was “improved thermostability”.

B9: H75A: A2aR point mutant (protein, UniProt P29274 1-412, looked up, variant H75A)
Adenosine receptor A2a: MPIMGSSVYITVELAIAVLAILGNVLVCWAVWLNSNLQNVTNYFVVSLAAADIAVGVLAIPFAITISTGFCAACAGCLFIACFVLVLTQSSIFSLLAIAIDRYIAIRIPLRYNGLVTGTRAKGIIAICWVLSFAIGLTPMLGWNNCGQPKEGKNHSQGCGEGQVACLFEDVVPMNYMVYFNFFACVLVPLLLMLGVYLRIFLAARRQLKQMESQPLPGERARSTLQKEVHAAKSLAIIVGLFALCWLPLHIINCFTFFCPDCSHAPLWLMYLAIVLSHTNSVVNPFIYAYRIREFRQTFRKIIRSHVLRQQEPFKAAGTSARVLAAHGSDGEQVSLRLNGHPPGVWANGSAPHPERRPNGYALGLVSGGSAQESQGNTGLPDVELLSHELKGVCPEPPGLDDPLAQDGAGVS
In the case of B9, the “thermostability assayed” value is listed as “improved thermostability”.

B10: V57A: A2aR point mutant (protein, UniProt P29274 1-412, looked up, variant V57A)
Adenosine receptor A2a: MPIMGSSVYITVELAIAVLAILGNVLVCWAVWLNSNLQNVTNYFVVSLAAADIAVGALAIPFAITISTGFCAACHGCLFIACFVLVLTQSSIFSLLAIAIDRYIAIRIPLRYNGLVTGTRAKGIIAICWVLSFAIGLTPMLGWNNCGQPKEGKNHSQGCGEGQVACLFEDVVPMNYMVYFNFFACVLVPLLLMLGVYLRIFLAARRQLKQMESQPLPGERARSTLQKEVHAAKSLAIIVGLFALCWLPLHIINCFTFFCPDCSHAPLWLMYLAIVLSHTNSVVNPFIYAYRIREFRQTFRKIIRSHVLRQQEPFKAAGTSARVLAAHGSDGEQVSLRLNGHPPGVWANGSAPHPERRPNGYALGLVSGGSAQESQGNTGLPDVELLSHELKGVCPEPPGLDDPLAQDGAGVS
As for B10, the “thermostability assayed” value is on record as “improved thermostability”.

B11: P313A: A2aR point mutant (protein, UniProt P29274 1-412, looked up, variant P313A)
Adenosine receptor A2a: MPIMGSSVYITVELAIAVLAILGNVLVCWAVWLNSNLQNVTNYFVVSLAAADIAVGVLAIPFAITISTGFCAACHGCLFIACFVLVLTQSSIFSLLAIAIDRYIAIRIPLRYNGLVTGTRAKGIIAICWVLSFAIGLTPMLGWNNCGQPKEGKNHSQGCGEGQVACLFEDVVPMNYMVYFNFFACVLVPLLLMLGVYLRIFLAARRQLKQMESQPLPGERARSTLQKEVHAAKSLAIIVGLFALCWLPLHIINCFTFFCPDCSHAPLWLMYLAIVLSHTNSVVNPFIYAYRIREFRQTFRKIIRSHVLRQQEAFKAAGTSARVLAAHGSDGEQVSLRLNGHPPGVWANGSAPHPERRPNGYALGLVSGGSAQESQGNTGLPDVELLSHELKGVCPEPPGLDDPLAQDGAGVS
As for B11, the “thermostability measured” value is on record as “improved thermostability”.
